Data as given in US20260132200A1 (Regeneron, published 2026).

T1: human CD3 expressed on cells (Jurkat, a CD3+ human T-cell line; human T cells) (human, UniProt P07766 23-126; P04234 22-100)
T1 chain 1: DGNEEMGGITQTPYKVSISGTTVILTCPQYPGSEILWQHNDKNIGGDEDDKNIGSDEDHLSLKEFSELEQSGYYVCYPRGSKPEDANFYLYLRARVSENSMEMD
T1 chain 2: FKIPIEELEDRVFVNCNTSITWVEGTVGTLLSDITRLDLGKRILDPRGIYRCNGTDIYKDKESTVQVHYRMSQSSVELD

B1: H2M3548N (antibody, mouse IgG2, V domains shown)
VH: EVQLVESGGGLVQPGRSLRLSCAASGFKFADYAMHWVRQAPGKGLEWVSEISWNSGSIGYVDSVKGRFTISRDNAKNSLYLQMNSLRAEDTALYYCVKDKSGYGHYYIGMDVWGQGTTVIVSS
VL: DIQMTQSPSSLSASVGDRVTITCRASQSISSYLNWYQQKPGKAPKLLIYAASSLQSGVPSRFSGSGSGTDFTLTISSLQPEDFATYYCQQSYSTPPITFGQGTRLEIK
B2: H1M3549N (antibody, mouse IgG1, V domains shown)
VH: EVQLVESGGGLVQPGRSLRLSCVASGFPFADYTMHWVRQAPGKGLEWVSDISWNSGSIGYADSVKGRFTISRDNAKNSLYLQMNSLRTEDTALYYCAKDMSGYAHYFYYGMDVWGQGTTVTVSS
VL: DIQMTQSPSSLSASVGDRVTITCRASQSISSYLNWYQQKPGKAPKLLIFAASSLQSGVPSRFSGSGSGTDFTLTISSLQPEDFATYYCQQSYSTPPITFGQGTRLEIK
B3: H2M3563N (antibody, mouse IgG2, V domains shown)
VH: EVHLVESGGGLVQPGRSLRLSCAASGFTFDDYTMHWVRQAPGKGLEWVSDISWNSGSIGYADSVKGRFTVSRDNAKNSLYLQMNSLRGEDTALYYCAKDMSGYGHYGKYGMDVWGQGTTVTVSS
VL: DIQMTQSPSSLSASVGDRVTITCRASQSIRSYLNWYQQKPGKVPKLLIYAASSLQSGVPSRFSGSGSGTDFTLTINSLQPDDFATYYCQQTYSNPPITFGQGTRLEIK
B4: H1M3613N (antibody, mouse IgG1, V domains shown)
VH: EVQLVESGGGLVQPGRSLKLSCTASGFTFADYTMHWVRQGPGKGLEWVSDISWNSGSKGYADSVKGRFTISRDNAKNSLYLQMNSLRTEDTALYYCAKDMSGYAHYYYYALDVWGQGTTVTVSS
VL: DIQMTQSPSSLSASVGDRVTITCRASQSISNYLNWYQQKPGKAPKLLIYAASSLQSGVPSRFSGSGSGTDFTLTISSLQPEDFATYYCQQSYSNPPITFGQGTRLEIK
B5: H1H5755B (antibody, human IgG1, V domains shown)
VH: EVQLVESGGGVVQPGRSLRLSCAASGFTFSNYGMHWVRQAPGKGLEWVTVILHDGSYKYYADSVKGRFTISRDNSKNTLHLQMNSLRTEDTAVYYCAKGPMFRGVPYNHYYGMDVWGQGTTVTVSS
VL: DIQMTQSPSSLSASVGDRVTITCRASQGIRNDLGWYQQKPGKAPKRLIYAASSLQSGVSSRFSGSGSGTEFTLTISSLQPEDFATYYCLQHNSYPYTFGQGTKVEIKR
B6: H1H5757B (antibody, human IgG1, V domains shown)
VH: EVQLVESGGGVVQPGRSLRLSCAASGFTFSSYGMHWVRQAPGKGLEWVTVILHDGSNRYSADSVKGRFTISRDNSKNTLYLQMNILRVEDTAVYYCTKGAMVRGVPYNHYYGMDVWGQGTTVTVSS
VL: DIQMTQSPSSLSASVGDRVTITCRASQGIRNDLGWYQQKPGKAPKRLIYAASILQSGVPSRFSGSGSGTEFTLTISSLQPEDFATYYCLQHNSYPYTFGQGTKLEIKR
B7: H1H5758B (antibody, human IgG1, V domains shown)
VH: EVQLVESGGGVVQPGRSLRLSCAASGFTFSSYGMHWVRQAPGKGLEWVTVILHDGSNRYYADSVKGRFTISRDNSKNTLYLQMNILRAEDTAVYYCTKGAMVRGVPYNHYYGMDVWGQGTTVTVSS
VL: DIVMTQSPSSLSASVGDRVTITCRASQGIRNDLGWYQQKPGKAPKRLIYAASNLQSGVPSRFSGSGSGTEFTLTISSLQPEDFATYYCLQHNSYPYTFGQGTKLEIKR
B8: H1H5788P (antibody, V domains shown)
VH: EVQLVESGGGLVQPGRSLRLSCAASGFTFDDYTMHWVRQAPGKGLEWVSGISWNSGSIGYADSVKGRFTISRDNAKNSLYLQMNSLRAEDTALFYCAKDQSGYGHYYYGMDVWGQGTTVTVSS
VL: EIVMTQSPATLSVSPGERATLSCRASQSVSSNLAWYQQKPGQAPRLLIYGASTRATDIPARFSGSGSGTEFTLTISSLQSEDFAVYHCQQYNNWPLTFGGGTKVEIK
B9: H1H5786B (antibody, human IgG1, V domains shown)
VH: QVQLVESGAEVKKPGASVKVSCKTSGYTFTGYYMHWIRQAPGQGLEWMGWINPKSGGTNYAQKFQGRVTMTRDTSISTAYMELSRLRSDDMAVYYCARMGDGAVFDFWGQGTLVTVSS
VL: AIQMTQSPSSLSASVGDRVTITCRASQRISSFLNWYQQKPGKAPKLLIYTASNLQNGVPSRFSGSGSGTDFTLTISSLQPEDFATYYCQQSYRTPLTFGGGTKVEIKR
B10: H1H5791B (antibody, human IgG1, V domains shown)
VH: QVQLVESGAEVKKPGASVKVSCKTSGYTLSGYYMHWMRQAPGQGLEWMGWINPKSGVTNYAQKFQDRVAMTRDTSISTAYMELSRLRSDDTAVYYCARMGDGAVFDFWAQGTLVTVSS
VL: DIQLTQSPSSLSASVGDRVTITCRASQRISSFLNWYQQKPGKAPKLLIYTASNLQNGVPSRFSGSGSGTDFTLTISSLQPEDFATYYCQQSYRTPLTFGGGTKLEIKR
B11: H1H5772S (antibody, human IgG1, V domains shown)
VH: QVQLVESGGGLVQPGRSLRLSCAASGFSFDDYAMHWVRQAPGQGLEWVSGISWNGGSRDYADSVKGRFTISRDNARNSLFLQMNSLFTEDTALYYCAKDKSGYGSYFYGMDVWGQGTTVTVSS
VL: EIVLTQSPGILSLSPGDRATLSCRASQSIRNIYLAWYQQKPGQAPRLLIHGASTRATGIPDRFSGSGSGTDFTLTISRLEPEDFAVYYCQQRVSSPYTFGQGTKLEIK
B12: H1H5782P (antibody, human IgG1, V domains shown)
VH: EVQLVESGGGLVQPGRSLRLSCAASGFTFDDYAMHWVRQAPGKGLEWVSGISWNSGSKDYADSVKGRFTISRDNTRNSLFLQMNSLRTEDTALYYCAKDKSGYGSFYYGMDVWGQGTTVTVSS
VL: not shown
B13: H1H5781P (antibody, human IgG1, V domains shown)
VH: EVQLVESGGGLVQPGRSLRLSCAASGFTFDDFTMHWVRQAPGKGLEWVSDISWNSGSIDYADSVKGRFTISRDNARNSLFLQMSSLRTEDTASYYCIKDKSGYGSYNYGLDVWGQGTTVTVSS
VL: EIVLTQSPGTLSLSPGDRATLSCRASQSVSSIYLAWYQQKPGQAPRLLIHGASTRATGIPDRFSGSGSGTDFTLTISRLEPEDFALYYCHQRVSSPYTFGQGTKLEIK
B14: H1H5780P (antibody, human IgG1, V domains shown)
VH: EVQLVESGGGLVQPGRSLRLSCAASGFTFDDYAMHWVRQAPGKGLEWVSGISWNGGSKDYADSVKGRFTISRDNTRNSLSLQMNSLRIEDTALYYCAKDKSGYGSFYYGLDVWGQGTTVTVSS
VL: EIVLTQSPGTLSLSPGDRATLSCRASQSIRSIYLAWYQQKPGQAPRLLIHGASTRATGIPDRFSGSGSGTDFTLTISRLEPEDFAVYYCQQRVSSPYTFGQGTKLEIK
B15: H1H5778P (antibody, human IgG1, V domains shown)
VH: EVQLVESGGGLVQPGRSLRLSCVASGFTFADFTMHWVRQAPGKGLEWVSGISWNSNSIDYADSVKGRFTISRDNAKKSLFLQMSSLRAEDTALYYCVKDRSGYSRFYYGMDVWGQGTTVTVSS
VL: EIVMTQSPATLSVSPGERAILSCRASQNINSNLAWYQQKPGQAPRLLIYGASTRATGVPARFSGSGSGTEFTLTIRSLQSEDFAVYYCQQYYNWPITFGHGTRLEIK
B16: H1H5752P (antibody, human IgG1, V domains shown)
VH: QVQLVESGGGVVQPGRSLRPSCAASGFSFRDYGMHWVRQAPGKGLEWMAHIWYNGKNKYYADSVKGRFTISRDNSKNTLYLQMNSLRPEDTAVYYCARDGVSARGTPFDYWGQGTLVTVSS
VL: ETTLTQSPAFMSAAPGDKVSISCIASQYIDDDVNWYQQKPGETAIFIIQEASTLVPGISPRFSGSGYGTHFTLTINNIDSEDAAFYFCLQHDNFPYTFGQGTKLEIK

Biological target: T1, human CD3 expressed on cells (Jurkat, a …)
Assay: cell-based or functional assay

Point of comparison: B1, “U937 Cytotoxicity Human T-cells [M] (EC50)” value 5.5e-12 M. Against it:
- B2 — 19-fold higher, 1.07e-10 M
- B3 — 7.4-fold higher, 4.05e-11 M
- B4 — 160-fold higher, 8.66e-10 M

Biological target: T1, human CD3 expressed on cells (Jurkat, a …)
Assay: cell-based or functional assay
Remark: another data set of the same source

Point of comparison: B6, “U937 Cytotoxicity Human T-cells [M] (EC50)” value 9.65e-11 M. Against it:
- B5 — 1.9-fold lower, 5.16e-11 M
- B7 — 920-fold higher, 8.86e-08 M
- B8 — 6.3-fold lower, 1.54e-11 M
- B9 — 1.6-fold lower, 6.1e-11 M
- B10 — within 1.5-fold, 8.01e-11 M
- B11 — 140-fold lower, 6.89e-13 M
- B12 — 19-fold lower, 5.18e-12 M
- B13 — 53-fold lower, 1.83e-12 M
- B14 — 24-fold lower, 4.03e-12 M
- B15 — 280-fold lower, 3.41e-13 M
- B16 — 5.2-fold lower, 1.85e-11 M
